B1: hu2H11R35R74-PEG4-NHAc-DM4 (antibody, human IgG1, kappa, V domains shown)
VH: QVQLVQSGAEVVKPGASVKISCKASGYTFTAYYMHWVKQSPVQSLEWIGLVNPYNGFSSYNQKFQGKASLTVDRSSSTAYMELHSLTSEDSAVYYCAREFYGYRYFDVWGQGTAVTVSS
VL: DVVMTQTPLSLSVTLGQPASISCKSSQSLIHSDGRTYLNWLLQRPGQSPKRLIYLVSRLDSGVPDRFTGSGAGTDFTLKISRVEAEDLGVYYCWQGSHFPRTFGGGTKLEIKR
modifications: may carry L-DM4 through the AcNH-PEG4 linker; sites not stated; maytansinoid L-DM4 attached through the AcNH-PEG4 linker (NHS activated ester; sites not stated); average DAR (UV) 5.9 for the whole antibody
B2: hu2H11R35R74-PEG4-Allyl-DM4 (antibody, human IgG1, kappa, V domains shown)
VH: QVQLVQSGAEVVKPGASVKISCKASGYTFTAYYMHWVKQSPVQSLEWIGLVNPYNGFSSYNQKFQGKASLTVDRSSSTAYMELHSLTSEDSAVYYCAREFYGYRYFDVWGQGTAVTVSS
VL: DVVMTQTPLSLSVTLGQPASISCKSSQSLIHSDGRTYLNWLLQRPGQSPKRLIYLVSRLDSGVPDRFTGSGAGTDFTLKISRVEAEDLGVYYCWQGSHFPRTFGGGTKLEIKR
modifications: may carry L-DM4 through the Allyl-PEG4 linker; sites not stated; maytansinoid L-DM4 attached through the Allyl-PEG4 linker (NHS activated ester; sites not stated); average DAR (UV) 5.3 for the whole antibody
B3: hu2H11R35R74-PEG8-NHAc-DM4 (antibody, human IgG1, kappa, V domains shown)
VH: QVQLVQSGAEVVKPGASVKISCKASGYTFTAYYMHWVKQSPVQSLEWIGLVNPYNGFSSYNQKFQGKASLTVDRSSSTAYMELHSLTSEDSAVYYCAREFYGYRYFDVWGQGTAVTVSS
VL: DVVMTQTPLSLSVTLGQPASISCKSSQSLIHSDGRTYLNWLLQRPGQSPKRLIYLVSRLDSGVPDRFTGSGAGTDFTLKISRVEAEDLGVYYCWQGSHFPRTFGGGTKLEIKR
modifications: may carry L-DM4 through the AcNH-PEG8 linker; sites not stated; maytansinoid L-DM4 attached through the AcNH-PEG8 linker (NHS activated ester; sites not stated); average DAR (UV) 4.9 for the whole antibody
B4: hu2H11R35R74-PEG4-NMeAc-DM4 (antibody, human IgG1, kappa, V domains shown)
VH: QVQLVQSGAEVVKPGASVKISCKASGYTFTAYYMHWVKQSPVQSLEWIGLVNPYNGFSSYNQKFQGKASLTVDRSSSTAYMELHSLTSEDSAVYYCAREFYGYRYFDVWGQGTAVTVSS
VL: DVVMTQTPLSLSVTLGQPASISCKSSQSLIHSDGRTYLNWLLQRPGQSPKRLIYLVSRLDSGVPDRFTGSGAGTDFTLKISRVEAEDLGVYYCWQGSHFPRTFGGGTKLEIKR
modifications: may carry L-DM4 through the AcNMe-PEG4 linker; sites not stated; maytansinoid L-DM4 attached through the AcNMe-PEG4 linker (NHS activated ester; sites not stated); average DAR (UV) 5.4 for the whole antibody

biological target: EphA2 receptor (UniProt P29317 24-976, limits assumed); test: cell-based or functional assay
Sequence (P29317 24-976 limits assumed): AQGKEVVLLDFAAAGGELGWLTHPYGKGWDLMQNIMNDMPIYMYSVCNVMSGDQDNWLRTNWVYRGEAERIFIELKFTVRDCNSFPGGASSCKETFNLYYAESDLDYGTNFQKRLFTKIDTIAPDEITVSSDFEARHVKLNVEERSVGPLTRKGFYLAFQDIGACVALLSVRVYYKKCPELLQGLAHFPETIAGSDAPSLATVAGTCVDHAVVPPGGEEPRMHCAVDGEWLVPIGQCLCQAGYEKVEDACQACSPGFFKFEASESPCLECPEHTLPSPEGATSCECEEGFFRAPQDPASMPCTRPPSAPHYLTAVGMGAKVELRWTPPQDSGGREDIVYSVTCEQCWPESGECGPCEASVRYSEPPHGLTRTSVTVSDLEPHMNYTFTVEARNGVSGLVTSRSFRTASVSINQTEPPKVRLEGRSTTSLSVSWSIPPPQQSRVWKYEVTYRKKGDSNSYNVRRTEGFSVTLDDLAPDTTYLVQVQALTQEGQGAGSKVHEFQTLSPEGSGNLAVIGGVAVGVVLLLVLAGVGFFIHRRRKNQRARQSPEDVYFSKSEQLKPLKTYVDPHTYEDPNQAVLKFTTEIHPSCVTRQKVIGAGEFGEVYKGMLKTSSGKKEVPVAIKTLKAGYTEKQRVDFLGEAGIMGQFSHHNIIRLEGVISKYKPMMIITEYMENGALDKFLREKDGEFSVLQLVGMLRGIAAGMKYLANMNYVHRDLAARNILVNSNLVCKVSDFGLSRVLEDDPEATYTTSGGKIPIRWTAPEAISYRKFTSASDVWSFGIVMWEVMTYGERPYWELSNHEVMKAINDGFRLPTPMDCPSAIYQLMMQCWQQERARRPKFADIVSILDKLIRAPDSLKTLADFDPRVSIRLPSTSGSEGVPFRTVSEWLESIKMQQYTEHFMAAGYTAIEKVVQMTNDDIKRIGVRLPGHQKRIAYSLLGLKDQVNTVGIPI

Row | Binder | IC50 [pM], +naked hu2H11R35R74 (1 uM); inhibition of growth of MDA-MB231 cells (14C-thymidine uptake) | IC50 [pM], conjugate alone; inhibition of growth of MDA-MB231 cells (14C-thymidine uptake) | ratio (IC50 +naked hu2H11R35R74 / conjugate alone)
1 | B1 | 29700 pM | 147 pM | 202
2 | B2 | 7820 pM | 161 pM | 49
3 | B3 | 25000 pM | 400 pM | 62
4 | B4 | 36400 pM | 217 pM | 168

Reference: US20120276124A1 (Sanofi, published 2012)
